Molecular target: Rabbit skeletal myosin (rabbit)
Test: cell-based or functional assay

Rabbit skeletal myosin, sequence (Q28641 whole entry): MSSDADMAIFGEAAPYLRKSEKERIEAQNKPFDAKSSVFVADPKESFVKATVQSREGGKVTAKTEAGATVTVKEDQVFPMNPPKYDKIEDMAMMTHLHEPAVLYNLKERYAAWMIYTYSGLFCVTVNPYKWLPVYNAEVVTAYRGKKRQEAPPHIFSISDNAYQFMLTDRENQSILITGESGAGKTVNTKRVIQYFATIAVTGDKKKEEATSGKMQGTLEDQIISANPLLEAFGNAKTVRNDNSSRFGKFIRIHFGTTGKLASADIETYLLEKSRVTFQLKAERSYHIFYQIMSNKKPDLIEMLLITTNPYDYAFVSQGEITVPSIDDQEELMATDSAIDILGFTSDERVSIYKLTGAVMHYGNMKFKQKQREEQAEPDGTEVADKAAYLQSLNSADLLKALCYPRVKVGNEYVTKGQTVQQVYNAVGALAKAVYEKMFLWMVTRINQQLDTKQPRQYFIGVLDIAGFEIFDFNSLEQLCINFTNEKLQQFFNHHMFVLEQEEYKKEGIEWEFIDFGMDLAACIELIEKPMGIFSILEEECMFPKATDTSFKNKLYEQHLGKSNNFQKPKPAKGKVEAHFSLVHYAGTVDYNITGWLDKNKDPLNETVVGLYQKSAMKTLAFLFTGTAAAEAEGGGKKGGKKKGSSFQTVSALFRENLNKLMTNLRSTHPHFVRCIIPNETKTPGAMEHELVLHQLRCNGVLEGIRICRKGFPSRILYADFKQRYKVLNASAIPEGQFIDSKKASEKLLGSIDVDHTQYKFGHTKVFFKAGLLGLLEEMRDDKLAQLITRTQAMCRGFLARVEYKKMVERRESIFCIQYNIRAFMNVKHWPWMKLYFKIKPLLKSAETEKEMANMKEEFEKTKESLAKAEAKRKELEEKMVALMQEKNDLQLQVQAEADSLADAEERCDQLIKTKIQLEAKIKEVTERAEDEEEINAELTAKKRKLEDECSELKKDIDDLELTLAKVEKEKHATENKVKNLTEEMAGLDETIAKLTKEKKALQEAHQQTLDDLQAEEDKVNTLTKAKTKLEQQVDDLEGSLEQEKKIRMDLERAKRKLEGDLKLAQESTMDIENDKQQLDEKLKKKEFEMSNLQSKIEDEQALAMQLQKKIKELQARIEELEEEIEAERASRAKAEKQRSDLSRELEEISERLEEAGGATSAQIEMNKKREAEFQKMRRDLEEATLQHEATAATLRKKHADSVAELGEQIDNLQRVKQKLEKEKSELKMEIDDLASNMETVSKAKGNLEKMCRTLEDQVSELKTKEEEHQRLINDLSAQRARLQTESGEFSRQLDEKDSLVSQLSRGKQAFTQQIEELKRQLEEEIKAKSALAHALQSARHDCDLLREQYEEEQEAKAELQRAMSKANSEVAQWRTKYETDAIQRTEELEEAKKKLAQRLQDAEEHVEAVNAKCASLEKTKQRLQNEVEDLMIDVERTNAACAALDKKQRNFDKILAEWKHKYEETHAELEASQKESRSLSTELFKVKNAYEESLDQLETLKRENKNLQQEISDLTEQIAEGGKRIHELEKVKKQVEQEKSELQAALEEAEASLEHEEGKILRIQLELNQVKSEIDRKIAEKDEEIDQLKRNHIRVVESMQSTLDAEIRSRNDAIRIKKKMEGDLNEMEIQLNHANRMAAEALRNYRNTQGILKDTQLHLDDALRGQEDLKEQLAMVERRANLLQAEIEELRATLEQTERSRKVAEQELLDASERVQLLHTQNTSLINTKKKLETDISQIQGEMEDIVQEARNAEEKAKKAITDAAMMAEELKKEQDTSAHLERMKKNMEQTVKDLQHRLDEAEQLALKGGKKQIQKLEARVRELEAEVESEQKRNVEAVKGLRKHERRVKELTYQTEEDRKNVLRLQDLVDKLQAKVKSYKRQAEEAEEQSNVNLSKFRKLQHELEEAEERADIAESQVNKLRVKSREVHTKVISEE
Rabbit skeletal myosin, sequence (P02602 2-192, further chain): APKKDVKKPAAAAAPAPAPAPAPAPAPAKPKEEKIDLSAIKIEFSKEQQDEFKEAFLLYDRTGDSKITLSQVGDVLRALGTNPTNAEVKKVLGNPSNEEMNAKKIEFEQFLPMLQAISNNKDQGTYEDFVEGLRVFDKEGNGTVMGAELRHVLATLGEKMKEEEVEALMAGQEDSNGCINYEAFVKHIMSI
Rabbit skeletal myosin, sequence (P02608 2-170, further chain): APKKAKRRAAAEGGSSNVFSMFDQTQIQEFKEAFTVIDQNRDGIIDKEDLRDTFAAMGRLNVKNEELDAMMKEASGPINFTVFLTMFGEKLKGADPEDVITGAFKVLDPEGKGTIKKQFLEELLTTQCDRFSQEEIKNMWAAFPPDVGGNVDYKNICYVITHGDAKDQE

Row | GFS: force at an uncoiled length of 138 nm, control without antibody | GFS: force to uncoil the myosin molecule for a length of 50 nm, no stabilizer (control) | GFS: force to uncoil the myosin molecule for a length of 60 nm, tethered by S1 heads to G-actin (control) | GFS: force to uncoil the myosin molecule to a length of 100 nm, no destabilizer (control) | in vitro motility: reduction of the motility of actin thin filaments over skeletal myosin thick filaments treated with MyBPC | Substance
1 | 4.8 pN | 3.62 pN | 2.67 pN | 4.92 pN |  | Rabbit skeletal myosin
2 |  |  |  |  | 22% | Myosin binding protein C (MyBPC), whole length skeletal

Source: patent US12617818
